Source: the supplement of paper PMC10724198
± gives the standard deviation of the averaged measurements.

system: Saccharomyces cerevisiae; assay: protein stability index of tFT-peptide fusion (C-terminal peptide) (PSI (0-1 scale)); higher = more stable (slower turnover); conditions: genetic background: wild type; temperature: 30 C
Procedure: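 Multiplexed protein stability (MPS) profiling in S. cerevisiae. Random 12-aa peptides (tFT-X12 library) are fused to the C-terminus of a sfGFP-mCherry tandem fluorescent timer, after mCherry and a GGGS linker. Cells are FACS-sorted into 8 mCherry/sfGFP bins and deep-sequenced. The protein stability index (PSI) is the read-weighted bin average, scaled from 0 (unstable) to 1 (stable). Only peptides with >10 reads are reported; cells were grown at 30 °C in SC-His with glucose.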
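Also: PSI is a weighted mean of sequencing reads over stability bins, variants kept only with over 10 reads, mCherry proximal and sfGFP distal, peptide attached via GGGS linker.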

Sequence	protein stability index
APVLPKPSPFSF	0.629 ± 0.01
APWSQLRSPPAL	0.769 ± 0.037
AQIGTKINTRKT	0.599 ± 0.04
AQPAPAPALADV	0.667 ± 0.039
AQPPPPPAPTPS	0.674 ± 0.093
AQSPRFPYRNYH	0.693 ± 0.049
AQTASQSPYRVG	0.731 ± 0.017
ARADILLLTWGV	0.604 ± 0.027
ARAGLVGDARGM	0.641 ± 0.026
ARAPPSSYPPSG	0.66 ± 0.012
AREGSRGVDVGV	0.629 ± 0.01
ARGPCRGSGSFG	0.631 ± 0.044
ARKRRRRGHDTE	0.725 ± 0.19
ARLATLSPEMAN	0.729 ± 0.082
ARLPSSRLDLSP	0.686 ± 0.056
ARPAPPDNVHRN	0.626 ± 0.069
ARPGSVIAQLRV	0.598 ± 0.031
ARPPPPPRSSPL	0.747 ± 0.072
ARRGGRKRPGAV	0.631 ± 0.056
ARSQGEKGGDVV	0.692 ± 0.0072
ARSVHGSLSLVM	0.633 ± 0.042
ARTADPAATPST	0.687 ± 0.02
ARTIVLGAGSGT	0.654 ± 0.084
ARVDGGGVRTDV	0.7511 ± 0.0069
ASALIFTPPSFL	0.686 ± 0.12

Sequence	protein stability index
ASFHPIAPVSTP	0.6862 ± 0.0011
ASFSLSPFLPFS	0.6854 ± 0.0068
ASFVPPYLPSSM	0.75 ± 0.17
ASIPAPRLTPRA	0.681 ± 0.048
ASLAACSLTNSV	0.697 ± 0.053
ASLLSCSLLPPV	0.765 ± 0.08
ASNVHSSTARFI	0.687 ± 0.082
ASPLTIHSPNLL	0.725 ± 0.064
ASPSKVSGLNID	0.785 ± 0.097
ASRCEVGVRWGG	0.683 ± 0.025
ASRKRKVAQESR	0.688 ± 0.03
ASRWVLLGGGGV	0.693 ± 0.03
ASSDLQDSPIGD	0.665 ± 0.019
ASSHDNPEEVST	0.6298 ± 0.002
ASTMAVLDYAPA	0.621 ± 0.0083
ASTTNLGNPFKA	0.654 ± 0.038
ASVLFILAIPDL	0.565 ± 0.039
ASVRPCSCSGRQ	0.715 ± 0.069
ATCSILPSRLSI	0.6124 ± 0.0011
ATHPPPPPLPPI	0.648 ± 0.068
ATLIGIPPSLSA	0.6643 ± 0.00067
ATQPPPPPLPPI	0.636 ± 0.052
ATQTGFGGGGPM	0.689 ± 0.013
ATSRGFLQNLMA	0.55737 ± 0.00018
ATVGVGSLLVKY	0.747 ± 0.05

Sequence	protein stability index
AVGGDGGAWVGP	0.7231 ± 0.0022
AVGGGTPGGVSG	0.667 ± 0.012
AVGTYFSPVVLL	0.65 ± 0.016
AVNEHVPILFLL	0.62 ± 0.073
AVRRRGGLSVGV	0.654 ± 0.036
AVSCGLGAGSSA	0.645 ± 0.039
AVTWSRPRSARM	0.736 ± 0.0041
AVVVGGGGWWWA	0.801 ± 0.12
AVWSLMRCREFV	0.652 ± 0.028
AVYSACSRVGWV	0.6937 ± 0.0061
AWGELGAGVFGL	0.68 ± 0.049
AWLAQIKLGWGL	0.68 ± 0.016
AYCVPPAFPFPL	0.627 ± 0.044
AYNFMTSVVPGK	0.744 ± 0.056
AYRLAFYGCVMR	0.514 ± 0.02
AYSNVFLDPTPV	0.69 ± 0.0097
CAASLSHKSAPY	0.768 ± 0.1
CACYILHGRSNP	0.684 ± 0.081
CAEFLFSTVLYP	0.735 ± 0.049
CCCELNTEIVQT	0.682 ± 0.059
CCCVLMTFTSSP	0.561 ± 0.044
CCFVLDLSASLL	0.625 ± 0.076
CCKRWICLLRRK	0.646 ± 0.012
CCLFCLLWSLLY	0.64 ± 0.0067
CDRVAQWTYPDA	0.783 ± 0.084

Sequence	protein stability index
CEEQQPGFKPLL	0.706 ± 0.04
CEERGLLPTQYS	0.6686 ± 0.006
CEGERRTLSVKP	0.666 ± 0.033
CEHRTPLMFKRG	0.686 ± 0.048
CEKGLFLRSAYV	0.65 ± 0.034
CEVCRGSDRCDV	0.609 ± 0.015
CEYPWGTVVRDG	0.709 ± 0.045
CFCVRTGCSVGV	0.663 ± 0.016
CFFNAASHSTYE	0.7032 ± 0.0049
CFHIFRKSNMNN	0.726 ± 0.11
CFLLSSFSLPRS	0.705 ± 0.0078
CFLSAVFISSSL	0.601 ± 0.045
CFRGGLLSESVV	0.6714 ± 0.0011
CFRPFSARVVVL	0.565 ± 0.016
CFSPAAPLLLPG	0.689 ± 0.025
CGACGFGLGVWV	0.701 ± 0.021
CGFALFLCDGFV	0.744 ± 0.083
CGGRPPADLRLS	0.69 ± 0.054
CGHVRSLAMAHN	0.68 ± 0.019
CGLGVRGRLVLS	0.625 ± 0.026
CGLRRRAGGGGV	0.7 ± 0.024
CGLSLRVICLEV	0.497 ± 0.02
CGRVWAENGSQG	0.689 ± 0.008
CGSGWDRSVGIG	0.531 ± 0.027
CGSHNRGLSSQL	0.676 ± 0.022

Sequence	protein stability index
CGVGGVRCGLLG	0.667 ± 0.029
CGVGWGMGEGWR	0.6956 ± 0.00081
CGVRQVGEIAVA	0.526 ± 0.022
CGWASSWHSGLH	0.6874 ± 0.00071
CGWCCVVCSCLV	0.602 ± 0.06
CGWMVSAGRLGG	0.655 ± 0.022
CHALPPLLPDPL	0.715 ± 0.028
CIARPSGNRSYL	0.714 ± 0.069
CINDSEYHSTMF	0.741 ± 0.043
CIRSSSTEPCLP	0.685 ± 0.00086
CIYPYSSLLMRI	0.532 ± 0.028
CKGIGLGGGVVS	0.599 ± 0.033
CKRDENKKIILR	0.727 ± 0.014
CLAAPIQDGGLT	0.684 ± 0.086
CLAIWSNLNECH	0.715 ± 0.034
CLARPVFFSFIG	0.559 ± 0.029
CLATAMARSQRE	0.683 ± 0.024
CLCCTSFPPPFP	0.673 ± 0.057
CLCPPPPLPVPR	0.699 ± 0.092
CLLLSLRVPPFS	0.638 ± 0.012
CLPHYSQVLLNW	0.715 ± 0.098
CLPPSPASFHPL	0.65 ± 0.056
CLPSQSAESLTF	0.664 ± 0.02
CLSPAFGCWWIV	0.582 ± 0.11
CNGRREAGHVDM	0.624 ± 0.13

Sequence	protein stability index
CPALPPAPLSPL	0.725 ± 0.018
CPCRCLGFRWCF	0.631 ± 0.076
CPFLSISSNCSM	0.667 ± 0.027
CPGGQVECGVLC	0.652 ± 0.021
CPHSLDTFVSKF	0.704 ± 0.066
CPNLWSRFASRC	0.716 ± 0.0085
CPPLSPPLLLLL	0.667 ± 0.017
CPRRGSHLARLL	0.621 ± 0.038
CPSFTSVLPSVP	0.678 ± 0.036
CPSHPDCFPDRL	0.6792 ± 0.0039
CPSRCGLRAPYL	0.706 ± 0.017
CPTLSSHLLFPS	0.659 ± 0.087
CQPTTTCTGGNV	0.693 ± 0.035
CRFPFRILHPPF	0.68957 ± 0.00018
CRFYKYIRNMFR	0.674 ± 0.074
CRGGRHFSREKF	0.723 ± 0.036
CRGWWRPGLGVT	0.64 ± 0.015
CRILRPITLRFR	0.528 ± 0.013
CRLRHPFPLSTR	0.644 ± 0.052
CRLSCRSVDAST	0.662 ± 0.022
CRLTAWDESGSG	0.673 ± 0.025
